The target in data set [1] is T1, AGO2 (loaded with guide RNA) (Homo sapiens, UniProt Q9UKV8 1-859). Briefly: filter binding; not above no-site control; 18 mM HEPES pH 7.4, 100 mM K-acetate, 1 mM Mg-acetate, 0.01% IGEPAL, 0.01 mg/mL yeast tRNA, 5 mM DTT, BSA, glycerol, 37 C, 4 h, 1-5 pM target; kinetics with 10. As to conditions: protein: recombinant, tags: 3xFLAG-SUMOEu1 (removed by SENPEuB cleavage), label: 32P target.

The target in data set [2] is T1, AGO2 (loaded with guide RNA). Briefly: filter binding; range over four guides; 18 mM HEPES pH 7.4, 100 mM K-acetate, 1 mM Mg-acetate, 0.01% IGEPAL, 0.01 mg/mL yeast tRNA, 5 mM DTT, BSA, glycerol, 37 C, 4 h, 1-5 pM target; kinetics with 10. As to conditions: protein: recombinant, tags: 3xFLAG-SUMOEu1 (removed by SENPEuB cleavage).
Data set [3] shares this target. Kind of data set: filter binding; upper bound, ~5 pM; 18 mM HEPES pH 7.4, 100 mM K-acetate, 1 mM Mg-acetate, 0.01% IGEPAL, 0.01 mg/mL yeast tRNA, 5 mM DTT, BSA, glycerol, 37 C, 4 h, 1-5 pM target; kinetics with 10. As to conditions: protein: recombinant, tags: 3xFLAG-SUMOEu1 (removed by SENPEuB cleavage), label: 32P target, offset +2.
Data set [4] deals with AGO2 D669A (loaded with guide RNA) (Homo sapiens, UniProt Q9UKV8 1-859, D669A). Kind of data set: hydroxyl radical footprinting; guide 3' region more accessible; 18 mM HEPES pH 7.4, 100 mM K-acetate, 1 mM Mg-acetate, 0.01% IGEPAL, 0.01 mg/mL yeast tRNA, 5 mM DTT, BSA, glycerol, 37 C, 4 h, 1-5 pM target; kinetics with 10. Particulars: protein: recombinant, tags: 3xFLAG-SUMOEu1.
Chain of AGO2 D669A (loaded with guide RNA) (Q9UKV8 whole entry D669A): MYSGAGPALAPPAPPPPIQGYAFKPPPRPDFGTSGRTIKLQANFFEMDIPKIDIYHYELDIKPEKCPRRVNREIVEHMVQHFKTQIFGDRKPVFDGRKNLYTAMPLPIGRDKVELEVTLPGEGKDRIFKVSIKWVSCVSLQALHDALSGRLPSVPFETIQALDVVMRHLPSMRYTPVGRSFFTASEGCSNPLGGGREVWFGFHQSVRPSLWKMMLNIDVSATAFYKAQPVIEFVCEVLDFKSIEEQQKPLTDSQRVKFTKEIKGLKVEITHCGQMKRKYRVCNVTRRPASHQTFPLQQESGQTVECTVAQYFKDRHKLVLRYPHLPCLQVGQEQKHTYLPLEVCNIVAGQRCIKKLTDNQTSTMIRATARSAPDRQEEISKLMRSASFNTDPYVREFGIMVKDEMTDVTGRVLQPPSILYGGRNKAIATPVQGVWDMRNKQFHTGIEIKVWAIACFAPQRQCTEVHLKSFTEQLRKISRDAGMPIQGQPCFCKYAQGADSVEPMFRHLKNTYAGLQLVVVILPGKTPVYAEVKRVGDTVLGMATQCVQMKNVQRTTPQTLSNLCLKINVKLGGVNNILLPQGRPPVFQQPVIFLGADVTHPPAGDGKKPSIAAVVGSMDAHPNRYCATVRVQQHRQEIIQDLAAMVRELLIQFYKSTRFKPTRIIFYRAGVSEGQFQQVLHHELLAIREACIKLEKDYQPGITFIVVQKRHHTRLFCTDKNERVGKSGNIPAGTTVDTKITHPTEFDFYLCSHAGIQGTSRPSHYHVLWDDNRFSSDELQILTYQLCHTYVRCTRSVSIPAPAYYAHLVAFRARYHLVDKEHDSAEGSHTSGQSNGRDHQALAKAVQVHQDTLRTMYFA

For data set [5], the target named is T1, AGO2 (loaded with guide RNA). Briefly: filter binding; Kd printed only in figure; similar to m11_23; 18 mM HEPES pH 7.4, 100 mM K-acetate, 1 mM Mg-acetate, 0.01% IGEPAL, 0.01 mg/mL yeast tRNA, 5 mM DTT, BSA, glycerol, 37 C, 4 h, 1-5 pM target; kinetics with 10. Particulars: protein: recombinant, tags: 3xFLAG-SUMOEu1 (removed by SENPEuB cleavage), label: 32P target, seed g2-8 paired.

Data set [6] shares this target. Briefly: filter binding; Kd printed only in figure; similar to m9_22; 18 mM HEPES pH 7.4, 100 mM K-acetate, 1 mM Mg-acetate, 0.01% IGEPAL, 0.01 mg/mL yeast tRNA, 5 mM DTT, BSA, glycerol, 37 C, 4 h, 1-5 pM target; kinetics with 10. Particulars: protein: recombinant, tags: 3xFLAG-SUMOEu1 (removed by SENPEuB cleavage), label: 32P target, seed g2-8 paired.
The target is the same in data set [7]. Kind of data set: filter binding; no boost over m11_23; 18 mM HEPES pH 7.4, 100 mM K-acetate, 1 mM Mg-acetate, 0.01% IGEPAL, 0.01 mg/mL yeast tRNA, 5 mM DTT, BSA, glycerol, 37 C, 4 h, 1-5 pM target; kinetics with 10. Particulars: protein: recombinant, tags: 3xFLAG-SUMOEu1 (removed by SENPEuB cleavage), label: 32P target, offset +2.
The target is the same in data set [8]. Kind of data set: filter binding; 18 mM HEPES pH 7.4, 100 mM K-acetate, 1 mM Mg-acetate, 0.01% IGEPAL, 0.01 mg/mL yeast tRNA, 5 mM DTT, BSA, glycerol, 37 C, 4 h, 1-5 pM target; kinetics with 10. As to conditions: protein: recombinant, tags: 3xFLAG-SUMOEu1 (removed by SENPEuB cleavage).
Setting [9] is: label: 32P target, complementary to g9-19.
The mark [10] stands for this setting: label: 32P target, g13-22 paired.

Where a chain is given by its changes, count along the chain named.

Results on 26 molecules are retold here after paper PMC12529927, “Functional microRNA targeting without seed pairing”.

T1 sequence (Q9UKV8 whole entry): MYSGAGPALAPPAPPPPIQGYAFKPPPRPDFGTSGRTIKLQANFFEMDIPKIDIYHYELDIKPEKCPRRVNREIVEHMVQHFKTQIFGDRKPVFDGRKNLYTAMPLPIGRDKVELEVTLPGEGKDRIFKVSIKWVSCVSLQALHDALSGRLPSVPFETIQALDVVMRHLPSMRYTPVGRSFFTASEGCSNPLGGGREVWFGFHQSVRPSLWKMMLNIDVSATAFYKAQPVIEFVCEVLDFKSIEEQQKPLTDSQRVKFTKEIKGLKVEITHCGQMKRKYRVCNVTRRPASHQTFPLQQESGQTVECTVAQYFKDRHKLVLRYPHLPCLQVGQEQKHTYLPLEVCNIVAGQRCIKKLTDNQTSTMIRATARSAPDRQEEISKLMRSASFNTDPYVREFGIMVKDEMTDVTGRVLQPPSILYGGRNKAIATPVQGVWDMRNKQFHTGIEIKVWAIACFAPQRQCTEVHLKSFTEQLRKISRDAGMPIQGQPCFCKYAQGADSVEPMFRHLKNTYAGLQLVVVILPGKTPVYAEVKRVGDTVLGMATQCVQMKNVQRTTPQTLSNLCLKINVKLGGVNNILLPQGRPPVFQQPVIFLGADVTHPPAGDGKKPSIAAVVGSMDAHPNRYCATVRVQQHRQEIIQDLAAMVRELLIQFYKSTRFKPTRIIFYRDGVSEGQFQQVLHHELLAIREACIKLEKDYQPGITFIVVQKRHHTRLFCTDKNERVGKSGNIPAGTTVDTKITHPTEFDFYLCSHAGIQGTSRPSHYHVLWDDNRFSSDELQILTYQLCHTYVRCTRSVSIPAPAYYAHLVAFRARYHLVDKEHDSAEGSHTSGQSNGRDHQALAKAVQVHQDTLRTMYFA

B1: miR-155 mut / m13_20 (mixed)
RNA 1: UUCGUGCUAAUCGUGAUAGGGGU
RNA 2: UUUUUUUCCUAUCACUUUUUUUUUUUUUU
modifications: 5'-phosphate guide
On to B1, for which the binding result in data set [1] (g13-20 paired) is given as “no binding”.

B2: miR-124 wt / m9_19 (mixed)
RNA 1: UAAGGCACGCGGUGAAUGCCAA
RNA 2: UUUUUUGCAUUCACCGCUUUUUUUUUUUUUUU
modifications: 5'-phosphate guide
For B2, in data set [2] (setting [9]), the Kd is roughly 0.205 nM.

B3: miR-124 mut / m9_19 (mixed)
RNA 1: UCUGGCUCGCGGUGAAUGCCAA
RNA 2: B2 RNA 2
modifications: 5'-phosphate guide
In the case of B3, the Kd in data set [2] (setting [9]) was roughly 0.205 nM.

B4: miR-155 wt / m13_20 (mixed)
RNA 1: UUAAUGCUAAUCGUGAUAGGGGU
RNA 2: UUUUUUUCCUAUCACUUUUUUUUUUUUUU
modifications: 5'-phosphate guide
Take B4: the binding result in data set [1] (g13-20 paired) is reported as “no binding”.

B5: miR-155 mut / m11_23|+2|m1_8 (mixed)
RNA 1: UUCGUGCUAAUCGUGAUAGGGGU
RNA 2: UUUUUUACCCCUAUCACGACCUUAGCACGAAUUUUUUUUU
modifications: 5'-phosphate guide
For B5, the Kd in data set [3] (g11-23 and g1-8 paired) was less than 0.005 nM.

B6: miR-155 wt / m11_23|+2|m1_8 (mixed)
RNA 1: UUAAUGCUAAUCGUGAUAGGGGU
RNA 2: B5 RNA 2 with C28U, G29U
modifications: 5'-phosphate guide
In the case of B6, the binding result in data set [4] (label: 32P target (kon) or 32P guide (probing), g11-23 and g1-8 paired, offset +2) was “binds”.

B7: miR-124 wt / m11_18 (mixed)
RNA 1: UAAGGCACGCGGUGAAUGCCAA
RNA 2: UUUUUUUUCAUUCACCUUUUUUUUUUUU
modifications: 5'-phosphate guide
On to B7, for which the binding result in data set [1] (g11-18 paired) is reported as “no binding”.

B8: miR-124 mut / m11_18 (mixed)
RNA 1: UCUGGCUCGCGGUGAAUGCCAA
RNA 2: UUUUUUUUCAUUCACCUUUUUUUUUUUU
modifications: 5'-phosphate guide
Take B8: in data set [1] (g11-18 paired), the binding result is “no binding”.

B9: miR-155 mut / 7mer-m8 (mixed)
RNA 1: UUCGUGCUAAUCGUGAUAGGGGU
RNA 2: UUUUUUUUUAAAGCACGAUUUUUU
modifications: 5'-phosphate guide
Consider B9, for which the binding result in data set [5] was “binds”.

B10: miR-124 mut / 7mer-m8 (mixed)
RNA 1: UCUGGCUCGCGGUGAAUGCCAA
RNA 2: UUUUUUUUUUUGAGCCAGUUUUUU
modifications: 5'-phosphate guide
Turning to B10, the binding result in data set [6] is given as “binds”.

B11: miR-155 wt / 7mer-m8 (mixed)
RNA 1: UUAAUGCUAAUCGUGAUAGGGGU
RNA 2: UUUUUUUUUAAAGCAUUAUUUUUU
modifications: 5'-phosphate guide
For the molecule B11, the binding result in data set [5] is “binds”.

B12: miR-155 mut / m11_23|+2|m2 (mixed)
RNA 1: UUCGUGCUAAUCGUGAUAGGGGU
RNA 2: UUUUACCCCUAUCACGACCUUUUUUUUAUUUU
modifications: 5'-phosphate guide
With B12, in data set [7] (g11-23 and g2 paired), the binding result is on record as “binds”.

B13: miR-155 mut / m11_23 (mixed)
RNA 1: UUCGUGCUAAUCGUGAUAGGGGU
RNA 2: UUUUUUACCCCUAUCACGACCUUUUUUUUUUUUUUU
modifications: 5'-phosphate guide
For B13, the Kd in data set [2] (label: 32P target, g11-23 paired) was roughly 0.0265 nM.

B14: miR-155 wt / m11_23 (mixed)
RNA 1: UUAAUGCUAAUCGUGAUAGGGGU
RNA 2: B13 RNA 2
modifications: 5'-phosphate guide
As for B14, the Kd in data set [2] (g11-23 paired) was roughly 0.0265 nM. In data set [4] (guide:target, g11-23 paired), the binding result is recorded as “binds”.

B15: miR-124 wt / m9_22|+3|m1_8 (mixed)
RNA 1: UAAGGCACGCGGUGAAUGCCAA
RNA 2: UUUUUUUUGGCAUUCACCGCUUUGUGCCUUAUUUUUUUUU
modifications: 5'-phosphate guide
Consider B15, for which the binding result in data set [4] (label: 32P guide, g9-22 and g1-8 paired, offset +3) is “binds”.

B16: miR-155 mut / m11_23|+2|m2_7 (mixed)
RNA 1: UUCGUGCUAAUCGUGAUAGGGGU
RNA 2: UUUUACCCCUAUCACGACCUUUGCACGAUUUU
modifications: 5'-phosphate guide
For the molecule B16, the Kd in data set [3] (g11-23 and g2-7 paired) is less than 0.005 nM.

B17: miR-155 mut / m11_23|+2|m2_4 (mixed)
RNA 1: UUCGUGCUAAUCGUGAUAGGGGU
RNA 2: B12 RNA 2 with U26C, U27G
modifications: 5'-phosphate guide
Turning to B17, the binding result in data set [7] (g11-23 and g2-4 paired) is “binds”.

B18: miR-155 mut / m11_23|+2|m2_3 (mixed)
RNA 1: UUCGUGCUAAUCGUGAUAGGGGU
RNA 2: B12 RNA 2 with U27G
modifications: 5'-phosphate guide
On to B18, for which the binding result in data set [7] (g11-23 and g2-3 paired) is recorded as “binds”.

B19: miR-155 mut / m11_23|+2|m2_8 (mixed)
RNA 1: UUCGUGCUAAUCGUGAUAGGGGU
RNA 2: B16 RNA 2 with U22A
modifications: 5'-phosphate guide
On to B19, for which, in data set [3] (g11-23 and g2-8 paired), the dissociation constant (Kd) was less than 0.005 nM.

B20: let-7a / m11_22 (also labelled m10_22) (mixed)
RNA 1: UGAGGUAGUAGGUUGUAUAGUU
RNA 2: UUUUUAACUAUACAACCUUUUUUUUUUUUUUU
modifications: 5'-phosphate guide
As to B20, the dissociation constant (Kd) in data set [8] (g11-22 paired) was roughly 0.4 nM.

B21: miR-124 wt / 7mer-m8 (mixed)
RNA 1: UAAGGCACGCGGUGAAUGCCAA
RNA 2: UUUUUUUUUUUGUGCCUUUUUUUU
modifications: 5'-phosphate guide
As for B21, in data set [6], the binding result is “binds”.

B22: let-7a / 7mer-m8 (mixed)
RNA 1: UGAGGUAGUAGGUUGUAUAGUU
RNA 2: UUUUUUUUUUUUUUUUUUCUACCUCUUUUUUU
modifications: 5'-phosphate guide
In the case of B22, the Kd in data set [8] (label: 32P target, seed g2-8 paired) was less than 0.005 nM.

B23: miR-155 wt / m13_22 (mixed)
RNA 1: UUAAUGCUAAUCGUGAUAGGGGU
RNA 2: UUUUUUCCCCUAUCACUUUUUUUUUUUUUUUU
modifications: 5'-phosphate guide
On to B23, for which the Kd in data set [2] (setting [10]) is roughly 0.205 nM.

B24: miR-155 mut / m13_22 (mixed)
RNA 1: UUCGUGCUAAUCGUGAUAGGGGU
RNA 2: B23 RNA 2
modifications: 5'-phosphate guide
With B24, in data set [2] (setting [10]), the Kd was roughly 0.205 nM.

B25: miR-124 wt / m9_22 (mixed)
RNA 1: UAAGGCACGCGGUGAAUGCCAA
RNA 2: UUUUUUUUGGCAUUCACCGCUUUUUUUUUUUUUUUU
modifications: 5'-phosphate guide
Turning to B25, the Kd in data set [2] (complementary to g9-22) was roughly 0.0265 nM. Also, the binding result in data set [4] (guide:target, complementary to g9-22) is recorded as “binds”.

B26: miR-124 mut / m9_22 (mixed)
RNA 1: UCUGGCUCGCGGUGAAUGCCAA
RNA 2: B25 RNA 2
modifications: 5'-phosphate guide
Regarding B26, the Kd in data set [2] (label: 32P target, complementary to g9-22) was roughly 0.0265 nM.
